Measured values from paper PMC5632219.

Target: HIV-1 glycoprotein gp120 (HIV-1) (UniProt P04578)
Experiment: ELISA

recombinant 2G12 mAb (IgG1) (antibody)
EC50: 2.3 pM
